Test results from the supplement of paper PMC12042874.
± gives the uncertainty stated by the source.

Assay: amyloid nucleation score (Sup35N fusion, yeast selection) (log enrichment); library NNK3; higher = more nucleation; inactive = no reads after selection
Summary of the method: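 In psi-negative yeast, Sup35N fusions carrying peptides of 20 random codons were induced with 100 μM copper sulfate for 24 hours. The cells then grew 7 days at 30°C on medium lacking adenine and uracil, and plasmid inserts from input and output were Illumina-sequenced, excluding sequences with under 100 input reads. Nucleation score is the DiMSum log enrichment of output over input reads, centred on the mode score of non-aggregating sequences.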

| Substance | amyloid nucleation score |
| --- | --- |
| VSFVSSVIVDGMPEILSIRY | inactive |
| QFDKSNPWNSSSLMMPENGV | inactive |
| WRLEL | inactive |
| GKSTYVLFGKWNTEKTRNRG | inactive |
| ELLLMCIDDVSMRFITPLEY | inactive |
| MASFSRHVCMYGTLNLSGNA | inactive |
| TQWYS | inactive |
| AGIVRWVVFISSYWGPLLLL | inactive |
| AILSTLVNTVNRELRQGRLM | inactive |
| TQLNTFYSVITSSFMIDFC | inactive |
| KYINFSLNS | inactive |
| CQRGTVADAPYLQRRLGLLY | inactive |
| PIRSNVAMIPDD | inactive |
| RKVSSLVITRMAWMLSGNWL | 2.57 ± 0.051 |
| QTTLSYIVCMQSRQLRNRAW | 0.848 ± 0.099 |
| KWKFCSGYAELMLP | inactive |
| QVLASTNATESCRIDRDTVV | inactive |
| CFIWMSYGVPLNCNCLPQRP | inactive |
| SYFTVHHSCLGHTTQHVMLS | inactive |
| LDMKPRQARTFFLNHGVLPA | 0.313 ± 0.78 |
| NALFHRI | inactive |
| DYATESFTVITLLGILLDRG | inactive |

| Substance | amyloid nucleation score |
| --- | --- |
| EGRRPKYIGNESRYNMYHPY | inactive |
| GCGPLNFSVESHQCLKS | inactive |
| RSRSYRMGSLLVKSWILTLT | inactive |
| KSIIYTILLVWFKYGVHSPL | inactive |
| LGSTKSPLSCVY | inactive |
| IYVVRIYVSWVNILHALVYS | inactive |
| TVGGFAWLDNSLSDRMFDTS | inactive |
| KSDPPGTVLYYTLAQPLYLL | inactive |
| FSFTRNERIDSLCSNAHSFT | inactive |
| LLAGYPLWKPKTCQYMKPWL | 0.125 ± 0.24 |
| SMSFTQFKGGGSIIITWCWP | inactive |
| RITGSRFCHCDLVNCDATVC | inactive |
| MSIIKKIG | inactive |
| SAIYMTVTVLVPFGFEMDNK | 0.178 ± 0.49 |
| TSTGYNPIYYIMMFN | 0.677 ± 0.32 |
| VSLVMSQVLRHHRCLLIYYL | inactive |
| EPKLDNV | inactive |
| ECCQSSSVITNFSSFVKGGA | inactive |
| TPYVTGTTEAVKMQHRCNVD | -0.188 ± 0.87 |
| LCQTVCRAPI | inactive |
| FGTEDK | inactive |
| LTDRQVCNLIWNNAYGFLC | 0.257 ± 0.52 |

| Substance | amyloid nucleation score |
| --- | --- |
| HLSLAVEFA | inactive |
| FGMPCFSSEYLLTCMVVLTG | inactive |
| VYFPTWFTLVFSPSKFWICI | inactive |
| VVLFYDSCSG | inactive |
| IKNHIIVRIDFGLYGEEKDS | 0.399 ± 0.19 |
| VNEIF | 0.432 ± 0.23 |
| EFMKGFAWISMFNLRSVLNS | inactive |
| EYSLTLPYFVGSALPPQNTC | inactive |
| DCLASGMISFRVTMSNRYTI | 0.241 ± 0.59 |
| RSYFC | inactive |
| YMGCIYIPYVKFYFKM | 1.26 ± 0.081 |
| RTKKMRNGASHRVMS | inactive |
| RWYRLSGYKSHRNR | inactive |
| YVSLCTTPVGERTSYSCDIH | inactive |
| TLASTGYFFR | inactive |
| SQLVVLCCCRSPSFYCGVL | 1.32 ± 0.17 |
| ISCMVFANHR | inactive |
| VYFLSVQLLYLFLSSALQRE | inactive |
| IRYLYLFVYSSRLSHIPGKN | inactive |
| RFGITLVFEYPAVEFVDTTI | inactive |
| VCAGNTDPWSQELIPYRKC | inactive |
